Assay results from patent US20180188270A1, “DIAGNOSTIC TEST FOR ALZHEIMER'S DISEASE BASED ON IDENTIFICATION OF A PROTEOLYTIC PATHWAY” (Health Research, Inc., priority 2015, published 2018).
Values joined by “and” are separate entries in the source; they are usually repeats but may differ in a detail not shown here. Equal values may be shown once.

Key:
plasma PEPD = assay: Plasma PEPD concentration in mice by ELISA; format: in vivo, mouse; settings: for average plasma level of total PEPD (hPEPD plus mPEPD), increase: hPEPD 10 mg/kg i.p., vs control
Procedure: Animal studies. All animal studies were performed in accordance with protocols approved by the Institutional Animal Care and Use Committee at Roswell Park Cancer Institute. Male mice at 7-8 weeks of age were used, including wild type (WT) mice (C57BL/6), and mice deficient in FXII (C57BL/6-FXII^−/−) or FVII (C57BL/6-FVII^tTA/tTA). WT C57BL/6 mice were purchased from Taconic. C57BL/6-FXII^−/− mice and C57BL/6-FVII^tTA/tTA mice were bred in our own facility and genotyped. The breeders were kindly provided by Dr. Francis J. Castellino at University of Notre Dame. […] CCl4 was dissolved in corn oil, whereas all other substances were dissolved in PBS. The vehicle or the test substance was given to mice in 0.1 ml volume per 20 g body weight. Blood was collected from the mice at specific times by cardiac puncture at the time of sacrifice by carbon dioxide, and heart, liver and kidney were also collected from some of the mice. Blood was collected into K3 EDTA-containing tubes (Multivette 600 from Sarstedt), unless specified otherwise. All blood samples were promptly centrifuged to obtain plasma samples.
Measurement of plasma levels of PEPD, SRC, Aβ1-42 and FI. […] The plates were washed three times with phosphate buffered saline tween-20 (PBST) and the coated wells were blocked by incubation with 200 μl/well of 1% BSA in PBS for at least 2 h at RT. After another round of wash with PBST, the plates were incubated with appropriately diluted Aβ1-42 standard, SRC standard or plasma samples (100 μl/well) for 2 h at RT. The plates were then washed with PBST and incubated with an anti-Aβ1-42 rabbit polyclonal antibody (sc-9129) or anti-SRC rabbit monoclonal antibody (2123) at 100 μl/well for 2 h at RT. The plates were washed again with PBST, and each well was incubated with a goat anti-rabbit IgG-HRP conjugate (100 μl) for 1 h at RT. After yet another round of wash with PBST, each well was incubated with 100 μl of HRP substrate 3,3′,5,5′-tetramethylbenzedine (Cell Signaling, 7004). Upon adequate color development, 100 μl of stop solution (Cell Signaling, 7002) was added to each well, and absorbance at 450 nm was promptly recorded by a microtiter plate reader. Plasma FI concentration was determined using an assay kit (400-374-130050) from GenWay Biotech, following the manufacturer's instruction.

FVII = target: T1, FVII (Homo sapiens, UniProt P08709); assay: hPEPD degradation by FVII with or without TF and/or FIIa; format: biochemical; settings: 24 h
T1 construct: purchased Haematologic Technologies HCVII-0030
T1 sequence (P08709 61-466): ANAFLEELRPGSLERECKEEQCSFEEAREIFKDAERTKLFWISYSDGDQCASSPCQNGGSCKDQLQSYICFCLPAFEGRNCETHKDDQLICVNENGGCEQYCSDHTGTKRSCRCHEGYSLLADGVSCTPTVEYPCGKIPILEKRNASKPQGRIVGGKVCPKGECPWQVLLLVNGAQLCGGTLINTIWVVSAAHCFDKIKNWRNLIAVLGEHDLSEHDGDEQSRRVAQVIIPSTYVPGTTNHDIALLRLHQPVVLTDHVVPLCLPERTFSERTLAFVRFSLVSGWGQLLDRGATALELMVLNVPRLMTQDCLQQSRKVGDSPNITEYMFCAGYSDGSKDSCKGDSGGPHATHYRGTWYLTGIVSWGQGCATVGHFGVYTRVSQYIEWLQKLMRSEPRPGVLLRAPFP
Procedure: Measurement of in vitro degradation of hPEPD, mSRC and hAβ1-42. To determine whether a blood coagulation factor degrades hPEPD, hPEPD at 90 nM or lower concentrations (10 or 40 nM) was incubated with solvent, 100 nM FIIa, 100 nM FXa, 10 nM FVIIa with or without 10 nM TF, or 10 nM FVII with or without 10 nM TF and/or 100 nM FIIa in PBS in a total volume of 100 μl containing 5 mM CaCl2 for desired times at RT. […] To compare the hPEPD-degrading activities of different plasma samples, 9.2 pmol of hPEPD was incubated with 100 μl of plasma from WT mice or FVII^tTA/tTA mice at RT, with or without FIIa or FXa (10 pmol), and to maximize detection of any activity, all incubations lasted for 24 h. […] To measure remaining hPEPD, the incubated samples were cleared of potential fibrin clots by centrifugation and then analyzed by SDS-PAGE and silver staining (using the LC 6070 kit from Invitrogen), IB or measurement of hPEPD enzymatic activity. hPEPD enzymatic activity was measured using glycyl-proline as a substrate (as described in Zbucka et al., Folia Histochem Cytobiol 2007; 45 Suppl 1: S181-185). The precipitates from each incubated sample were washed with PBS twice and then resuspended in 2.5% SDS (20 μper sample); each solution was mixed with 10 μl loading dye and analyzed for hPEPD by IB, using pure hPEPD as a standard and factor FXIIIa as a binding control, respectively.

B1: hPEPD: recombinant human prolidase (PEPD), 6xHis tagged to the carboxy terminus (protein, UniProt P12955 2-493, looked up)
Xaa-Pro dipeptidase: AAATGPSFWLGNETLKVPLALFALNRQRLCERLRKNPAVQAGSIVVLQGGEETQRYCTDTGVLFRQESFFHWAFGVTEPGCYGVIDVDTGKSTLFVPRLPASHATWMGKIHSKEHFKEKYAVDDVQYVDEIASVLTSQKPSVLLTLRGVNTDSGSVCREASFDGISKFEVNNTILHPEIVECRVFKTDMELEVLRYTNKISSEAHREVMKAVKVGMKEYELESLFEHYCYSRGGMRHSSYTCICGSGENSAVLHYGHAGAPNDRTIQNGDMCLFDMGGEYYCFASDITCSFPANGKFTADQKAVYEAVLRSSRAVMGAMKPGVWWPDMHRLADRIHLEELAHMGILSGSVDAMVQAHLGAVFMPHGLGHFLGIDVHDVGGYPEGVERIDEPGLRSLRTARHLQPGMVLTVEPGIYFIDHLLDEALADPARASFLNREVLQRFRGFGGVRIEEDVVVTDSGIELLTCVPRTVEEIEACMAGCDKAFTPFSGPK
modifications: C-terminal 6xHis tag
notes: recombinant human prolidase (PEPD), 6xHis tagged to the carboxy terminus
For B1, the “plasma level of total PEPD, increase” value (plasma PEPD; FVII tTA/tTA mice, hPEPD 0.2 mg/kg i.p., 6 h) was 12.0 fold, the “plasma level of total PEPD, increase” value (plasma PEPD; FXII−/− mice, hPEPD 0.2 mg/kg i.p., 6 h, no EP) was 12.5 fold and the “plasma level of total PEPD, increase” value (plasma PEPD; FXII−/− mice, hPEPD 4 mg/kg i.p., 24 h) was 134.6 fold. The “average plasma level of total PEPD, of control” value (plasma PEPD; WT mice, hPEPD 0.2 mg/kg i.p., 1 h) was 51%, the “plasma level of total PEPD, decrease” value (plasma PEPD; WT mice, hPEPD 0.2 mg/kg i.p., 6 h, no EP) was 66% and 56.3% and the “average plasma level of total PEPD, of control” value (plasma PEPD; WT mice, hPEPD 0.2 mg/kg i.p., 24 h) was 46%. For the same molecule, the “plasma level of total PEPD, increase” value (plasma PEPD; WT mice, hPEPD 4 mg/kg i.p., 24 h) was 3.3 fold, the “average plasma level of total PEPD (hPEPD plus mPEPD), increase” value (plasma PEPD; WT mice, 1 h) was 19.4 fold and the “average plasma level of total PEPD (hPEPD plus mPEPD), increase” value (plasma PEPD; WT mice, 24 h) was 15.1 fold. For the same molecule, the “plasma level of total PEPD, difference between FVII tTA/tTA and WT mice” value (plasma PEPD; hPEPD 0.2 mg/kg i.p., 6 h) was 68.9 fold, the “average plasma level of total PEPD, higher in FXII−/− mice than in WT mice” value (plasma PEPD; hPEPD 0.2 mg/kg i.p., 6 h, no EP) was 53.8 fold and the “hPEPD degradation by FVII with or without TF after adding FIIa” value (FVII; FIIa 100 nM) was “caused marked hPEPD degradation”. The “proteolysis of hPEPD by FVII with or without TF” value (FVII; FVII 10 nM, TF 10 nM) was “showed no proteolytic activity towards hPEPD”.
